Blank lines part the entries; values can stand above or below the binder they belong to.
Key:
Assay in all cases: phage ELISA
TNF-alpha = target: T1, TNF-alpha (human, UniProt P01375 77-233)
T1 construct: also called TNFα; TNF-α

TRAIL = target: T2, TRAIL (human, UniProt P50591 114-281)
T2 construct: also called TNF-related apoptosis inducing ligand

[1] = target: T3, B Lymphocyte Stimulator, soluble form (human) (human, UniProt Q9Y275 134-285, biotinylated with NHS-biotin where used as biotinylated B Lymphocyte Stimulator)
T3 construct: Coated on plastic, captured on streptavidin plates, amine-coupled to a CM5 chip or free in solution, depending on the assay; also called BLyS; immobilized B Lymphocyte Stimulator

LIGHT = LIGHT (human, UniProt O43557 74-240, limits assumed)
TNF-beta = target: T4, TNF-beta (human, UniProt P01374 35-205)
T4 construct: also called TNFβ; Tumour Necrosis Factor-beta
T4 sequence (looked up): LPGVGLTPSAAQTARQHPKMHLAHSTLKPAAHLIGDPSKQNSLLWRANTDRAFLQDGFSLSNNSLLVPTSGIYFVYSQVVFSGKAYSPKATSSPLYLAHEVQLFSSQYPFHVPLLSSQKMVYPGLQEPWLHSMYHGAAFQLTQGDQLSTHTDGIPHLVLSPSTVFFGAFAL

T1 sequence (P01375 77-233 limits assumed): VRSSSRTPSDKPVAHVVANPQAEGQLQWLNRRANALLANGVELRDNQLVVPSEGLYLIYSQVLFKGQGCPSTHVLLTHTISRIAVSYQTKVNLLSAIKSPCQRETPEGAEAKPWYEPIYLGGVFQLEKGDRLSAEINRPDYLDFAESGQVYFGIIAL
T2 sequence (P50591 114-281 limits assumed): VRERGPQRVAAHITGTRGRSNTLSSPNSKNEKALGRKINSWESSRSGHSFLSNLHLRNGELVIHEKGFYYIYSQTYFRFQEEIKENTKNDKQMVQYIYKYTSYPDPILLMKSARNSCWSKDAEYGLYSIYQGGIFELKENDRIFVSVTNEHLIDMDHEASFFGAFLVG
Chain of LIGHT (O43557 74-240 limits assumed): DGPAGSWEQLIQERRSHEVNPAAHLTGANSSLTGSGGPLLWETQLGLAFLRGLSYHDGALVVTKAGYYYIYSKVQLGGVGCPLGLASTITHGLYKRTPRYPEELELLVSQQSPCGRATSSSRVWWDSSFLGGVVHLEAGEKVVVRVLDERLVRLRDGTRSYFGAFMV

B1: I030A10 (scFv)
scFv: QVQLVQSGAEVKKPGSSVKVSCRASGGSFNHAISWVRQAPGRGLEWMGGILPMYGTANYAQKFQGRVTITADKLTNTVYMDLSRLRYEDTAVYYCARELGLSIVGATTGALDMWGRGTLVTVSSGGGGSGGGGSGGGGSAQAVLTQPSSVSGAPGQRVIISCTGSSSNIGPDYDVHWYQQLPGTAPKLLIYGNNNRPSGVPDRFSGSKSGTSASLAITGLQAEDEAHYYCQSYGSSLSGVVFGGGTKVTVLG
binding result (TNF-alpha): no binding
binding result (TRAIL): no binding
binding result [1]: binds
binding result (LIGHT): no binding
binding result (TNF-beta): no binding

B3: I073F04 (scFv)
scFv: QVQLQQSGAEVKKPGSSVKVSCKASGGTFRSYAFSWVRQAPGQGLEWMGYIVPVFGTATYAQNFQGRVTITADELTTTAFMELSSLTSEDTAVYYCARSLATRPLGMDVWGRGTTVTVSSGGGGSGGGGSGGGGSQSVLTQPASVSGSPGQSITISCTGTSSDVGGYNYVSWYQQHPGKAPKLMIYEGSKRPSGVSNRFSGSKSGNTASLTISGLQAEDEADYYCSSYTTRSTRVFGGGTKLTVLG
binding result (TNF-alpha): no binding
binding result (TRAIL): no binding
binding result [1]: binds
binding result (LIGHT): no binding
binding result (TNF-beta): no binding

B4: I068B04 (scFv)
scFv: QVQLVQSGAEVKKPGSSVKVSCKASGGTVSSRTISWVRQAPGQGLEWMGGSLPPSGAPIYAQKFQGRVAITADALTNTAFMELRSLKSDDTAVYYCARDQGRYLDLWGRGTLVTVSSGGGGSGGGGSGGGGSALPVLTQPPSASATPGQRVTISCSGSSSNIGSNYVYWYQQLPGTAPKVLIYRNNQRPSGVPDRFSGSRSGTSASLAISGLRSEDEADYYCATWDDSLSGPVFGGGTKVTVLG
binding result (TNF-alpha): no binding
binding result (TRAIL): no binding
binding result [1]: binds
binding result (LIGHT): no binding
binding result (TNF-beta): no binding

B5: I067B10 (scFv)
scFv: QMQLVQSGAEVKKPGASVKVSCKASGYTFTSYYMHWVRQAPGQGLEWMGWINAGNSNTKYSQKFQGRVTITSDTSASTAYMELSGLRSEDTAVYYCARDRGAPNYDILTGYYAPAQGVAFDIWGKGTLATVSSGGGGSGGGGSGGGGSQSVLTQPPSVSAAPGQKVTISCSGSTSNIGNNYVSWYQQHPGKAPKLMIYDVSKRPSGVPDRFSGSKSGNSASLDISGLQSEDEADYYCAAWDDSLSEFLFGTGTKLTVLG
binding result (TNF-alpha): no binding
binding result (TRAIL): no binding
binding result [1]: binds
binding result (LIGHT): no binding
binding result (TNF-beta): no binding

B6: I026C04-R (scFv)
scFv: QVQLVQSGAEVKKPGSSVKVSCRASGGSFNRHAISWVRQAPGRGLEWMGGILPMYGTANYAQKFQGRVTITADKLTNTVYMDLSRLRYEDTAVYYCARELGLSIVGATTGALDMWGKGTLVTVSSGGGGSGGGGSGGGGSAQSVLTQPPSVSAAPGQKVTISCSGSSSNIGNNYVSWYQQIPGTAPKLLIYENNKRPSGIPDRFSGSKSGASATLDITGLQTGDEADYYCGTWHSSQVVFGGGTKLTVLG
binding result (TNF-alpha): no binding
binding result (TRAIL): no binding
binding result [1]: binds
binding result (LIGHT): no binding
binding result (TNF-beta): no binding

B8: I025B06 (scFv)
scFv: QVQLVQSGAEVKKPGSSVKVSCRASGGSFNHAISWVRQAPGRGLEWMGGILPMYGTANYAQKFQGRVTITADKLTNTVYMDLSRLRYEDTAVYYCARELGLSIVGATTGALDMWGKGTLVTVSSGGGGSGGGGSGGGGSAQSVLTQPPSVSAAPGQKVTISCSGSSSNIGNNYVSWYQQIPGTAPKLLIYENNKRPSGIPDRFSGSKSGASAALDITGLQTGDEADYYCGTWHSSQVVFGGGTKLTVLG
binding result (TNF-alpha): no binding
binding result (TRAIL): no binding
binding result [1]: binds
binding result (LIGHT): no binding
binding result (TNF-beta): no binding

B9: I025B09 (scFv)
scFv: QVHLVQSGAEVKKPGSSVKVSCRASGGSFNHAISWVRQAPGRGLEWMGGILPMYGTANYAQKFQGRVTITADKLTNTVYMDLSRLRYEDTAVYYCARELGLSIVGATTGALDMWGKGTLVTVSSGGGGSGGGGSGGGGSAQSVLTQPPSVSAAPGQKVTISCSGSSSNIGNNYVSWYQQIPGTAPKLLIYENNKRPSGIPDRFSGSKSGASATLDITGLQTGDEADYYCGTWHSSQVVFGGGTKLTVLG
notes: also called I0025B09
binding result (TNF-alpha): no binding
binding result (TRAIL): no binding
binding result [1]: binds
binding result (LIGHT): no binding
binding result (TNF-beta): no binding

B11: I075G01 (scFv)
scFv: QVQLVQSGAEVKKPGASVKVSCKTSGYTFTGYNINWVRQAPGQGLEWMGWVSPSNGDTSYAQTFQGRVTMTRDTSISTAYMELSSLKSDDTAVYYCARDHFDTLTGYFRRLDSWGQGTLVTVSSGGGGSGGGGSGGGGSALSSELTQDPEVSVALGQTVTITCQGDSLITHYASWFQQKPGQAPLLVFYSKDKRPSGIPDRFSGSYSGNTASLTITGAQAEDEADYYCNSRDSRGKNHVAFGGGTKLTVLG
binding result (TNF-alpha): no binding
binding result (TRAIL): no binding
binding result [1]: binds
binding result (LIGHT): no binding
binding result (TNF-beta): no binding

B13: I002A01-R (scFv)
scFv: QVQLVQSGAEVKKPGSSVKVSCRASGGSFNRHAISWVRQAPGRGLEWMGGILPMYGTANYAQKFQGRVTITADKLTNTVYMDLSRLRYEDTAVYYCARELGLSIVGATTGALDMWGKGTLVTVSSGGGGSGGGGSGGGGSALPVLTQPPSVSVAPGQTATLTCGGTNFGRQSVHWYQQKPGQAPVLAIYHDDVRPSGIPERLSGSKSGNTATLTISRVEAGDEAAYYCQVWDSGSDVVVFGGGTKLTVLG
binding result (TNF-alpha): no binding
binding result (TRAIL): no binding
binding result [1]: binds
binding result (LIGHT): no binding
binding result (TNF-beta): no binding

Next, values leading:

binding result (TNF-alpha): no binding
binding result (TRAIL): no binding
binding result [1]: binds
binding result (LIGHT): no binding
binding result (TNF-beta): no binding
B2: I065D08 (scFv)
scFv: GVQLVQSGAEVKKPGASVKVSCKASGYTFTSYGISWVRQAPGQGLEWMGWISAYNGNTNYAQKLQGRVTMTTDTSTSTAYMELRSLRSDDTAVYYCARTPSSVYDLLTGYYHYFYSYMDVWGRGTMVTVSSGGGGSGGGGSGGGGSQSVLTQPASVSGSPGQSITISCTGTSSDVGGYNYVSWYQQHPGEAPKLMIYEGSKRPSGVSNRFSGSKSGNTASLTISGLQAEDEADYYCSSYTTRSTRVFGGGTKLTVLG

binding result (TNF-alpha): no binding
binding result (TRAIL): no binding
binding result [1]: binds
binding result (LIGHT): no binding
binding result (TNF-beta): no binding
B7: I078D08 (scFv)
scFv: QVNLRESGGGLVQPGGSLRLSCAASGFTFSSYWMSWVRQAPGKGLEWVANIKQDGSEKYYVDSVKGRFTISRDNSKNTLYLQMNSLRAEDTAVYYCARDAQSYYDILTGYQSYAFDIWGQGTTVTVSSGGGGSGGGGSGGGGSSELTQDPAVSVALGQTVRITCQGDSLRSYYTNWFQQKPGQAPLLVVYAKNKRPSGIPDRFSGSSSGNTASLTITGAQAEDEADYYCHSRDSSGNHVLFGGGTKLTVLG

binding result (TNF-alpha): no binding
binding result (TRAIL): no binding
binding result [1]: binds
binding result (LIGHT): no binding
binding result (TNF-beta): no binding
B10: I065F08 (scFv)
scFv: QVQLQQSGAEVKKPGSSVKVSCKASGDTFSSFGISWVRQVPGQGLEWMGAIIPKFDIVTYAEEFKGRVTISADKLTNTAYMEVKSLRSEDTAVYYCTREKSAAGYFDYWGKGTLVTVSSGGGGSGGGGSGGGGSDIVMTQSPSTLSASVGDRVTITCRASQGISSWLAWYQQKPGRAPKVLIYKASTLESGVPSRFSGSGSGTDFTLTISSLQPEDFATYYCQQSYSTPWTFGQGTKLEIKR

binding result (TNF-alpha): no binding
binding result (TRAIL): no binding
binding result [1]: binds
binding result (LIGHT): no binding
binding result (TNF-beta): no binding
B12: I003C06 (scFv)
scFv: QVQLVQSGAEVKKPGSSVKVSCRASGGSFNHAISWVRQAPGRGLEWMGGILPMYGTANYAQKFQGRVTITADKLTNTVYMDLSRLRYEDTAVYYCARELGLSIVGATTGALDMWGKGTLVTVSSGGGGSGGGGSGGGGSALPVLTQPPSVSVAPGQTATLTCGGTNFGRQSVHWYQQKPGQAPVLAIYHDDVRPSGIPERLSGSKSGNTATLTISRVEAGDEAAYYCQVWDSGSDVVVFGGGTKLTVLG

binding result (TNF-alpha): no binding
binding result (TRAIL): no binding
binding result [1]: binds
binding result (LIGHT): no binding
binding result (TNF-beta): no binding
B14: I002A01-K (scFv)
scFv: QVQLVQSGAEVKKPGSSVKVSCRASGGSFNKHAISWVRQAPGRGLEWMGGILPMYGTANYAQKFQGRVTITADKLTNTVYMDLSRLRYEDTAVYYCARELGLSIVGATTGALDMWGKGTLVTVSSGGGGSGGGGSGGGGSALPVLTQPPSVSVAPGQTATLTCGGTNFGRQSVHWYQQKPGQAPVLAIYHDDVRPSGIPERLSGSKSGNTATLTISRVEAGDEAAYYCQVWDSGSDVVVFGGGTKLTVLG

— patent publication US20110293610A1 (published 2011)
